In PMC12065890:

Experiments:
[1] = biological target: Amh C-terminal domain (SPR protein) (zebrafish); assay: SPR
[2] = biological target: full-length Amh (SPR protein) (zebrafish); assay: SPR

Kd [1]: 1390 nM
Kd [2]: 116 nM
Substance: Bmpr2a domain protein (protein kinase domain of Bmpr2a, SPR protein) (domain or fragment)
